The target of data set [1] is T1, streptavidin (SA chip) (UniProt P22629 37-163, limits assumed).
T1 construct: Chip surface of the SPR experiments; also called SA chips; streptavidin-coated chip
As to the kind of experiment: SPR, Biacore 3000, streptavidin-coated chip. (In general: SPR reads the build-up and loss of mass on a sensor chip optically.)
Procedure: Surface Plasmon Resonance (SPR). SPR sensorgrams were recorded on a BiaCore 3000 instrument (Biacore Inc, Piscataway, N.J.), employing a high-capacity LMWH surface created on a commercially available streptavidin-coated chip via treatment with biotinylated LMWH.
In SPR experiments, the interaction of the peptides with a LMWH-modified SA chip surface was determined under conditions described in the experimental section.

Data set [2] concerns the molecule itself. As to the kind of experiment: circular dichroism, concentration dependence of MRE at 222 nm in PBS, fit for the Kd of the dimerization; isolated PF4ZIP, not conjugated to PEG. (In general: CD spectra are sensitive to the conformation of chiral molecules.)
Procedure: Samples were equilibrated at the desired temperature for 30 minutes prior to data collection; equilibration was indicated by the absence of further changes in the CD signal at longer equilibration times. All CD spectra were taken in a 1 mm path length quartz cuvette, at wavelengths from 200 to 250 nm. Data points were recorded at every nanometer with a 4.0 s response time. The concentrations of peptide samples were determined via amino acid analysis for calculation of mean residue ellipticities.
The conformation of PF₄ZIP at various concentrations was also monitored via CD. […] The difference between the measured ellipticity and the ellipticity of the unfolded monomer is related to concentration and can be fit to determine the Kd of the dimerization, via standard fitting procedures well-described in the literature.

Ends that are not written are not given here.

The text below walks through data of US20110033543A1 (UNIVERSITY OF DELAWARE, published 2011).

T1 sequence (P22629 37-163 limits assumed): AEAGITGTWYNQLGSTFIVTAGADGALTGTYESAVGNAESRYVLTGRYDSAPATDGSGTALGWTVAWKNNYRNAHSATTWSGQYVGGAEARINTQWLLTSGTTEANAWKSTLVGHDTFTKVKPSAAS

For CGGRMKQLEDKVKKLLKKNYHLENEVARLKKLVG-NH2 (also: coiled-coil dimer, also called coiled-coil PF4ZIP) [PF4ZIP], the binding result in data set [1] is recorded as “no binding”. Moreover, in data set [2], the affinity, expressed as Kd, was 3.48 µM.
